Laboratory results published in IntAct's records for PubMed 18957540.

Biological target: ntrk2_rat Ntrk2 (UniProt Q63604)
Sequence (Q63604 whole entry): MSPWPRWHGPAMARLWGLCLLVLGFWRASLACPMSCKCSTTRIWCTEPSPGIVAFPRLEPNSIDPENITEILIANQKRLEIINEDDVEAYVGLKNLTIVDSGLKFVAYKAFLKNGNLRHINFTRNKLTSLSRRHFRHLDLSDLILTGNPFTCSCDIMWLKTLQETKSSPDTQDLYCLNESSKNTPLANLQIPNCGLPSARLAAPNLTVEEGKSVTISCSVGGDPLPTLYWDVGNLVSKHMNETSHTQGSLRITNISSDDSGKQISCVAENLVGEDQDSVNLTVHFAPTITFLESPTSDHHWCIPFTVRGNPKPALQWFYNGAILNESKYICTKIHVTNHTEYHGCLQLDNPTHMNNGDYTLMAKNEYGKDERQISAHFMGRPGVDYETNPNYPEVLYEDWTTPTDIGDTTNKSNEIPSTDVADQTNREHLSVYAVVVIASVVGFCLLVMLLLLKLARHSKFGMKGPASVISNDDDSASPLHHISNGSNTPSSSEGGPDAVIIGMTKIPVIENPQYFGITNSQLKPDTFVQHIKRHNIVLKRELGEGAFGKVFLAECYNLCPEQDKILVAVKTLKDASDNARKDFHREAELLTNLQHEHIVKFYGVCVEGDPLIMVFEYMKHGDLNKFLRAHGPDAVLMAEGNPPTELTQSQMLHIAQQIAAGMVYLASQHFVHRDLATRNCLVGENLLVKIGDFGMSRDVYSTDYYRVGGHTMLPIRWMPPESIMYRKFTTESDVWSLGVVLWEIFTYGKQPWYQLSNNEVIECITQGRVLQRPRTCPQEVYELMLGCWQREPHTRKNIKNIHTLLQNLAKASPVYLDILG

Protein farnesyltransferase/geranylgeranyltransferase type-1 subunit alpha (Rattus norvegicus (Rat)) (from UniProt Q04631) Y166A
effect of a mutation on the interaction: decreasing interaction strength
